Experimental data taken from article PMC11289257 (2024).

B1: porcine antibody C9 (class III) (Fab, V domains shown)
VH: EVKLVESGGGLVQPGGSLRLSCVGSGFTFSSYEINWVRQAPGKGLEWLAVVSKIGDRTYYADSVRGRLTISRDNSQNTAYLQMNSLRTEDTARYYCVRAWCASTCLPGDIMDLWGPGVGVVVSS
VL: QTVIQEPAMSVSPGGTVTLTCAWSSGSVTTSNYPSWFQQTPGQPPRQLIYNTNSRPTGVPRRFSGKISGNKAALTITGAQAEDEADYFCGLYKRSANNIFGGGTHLTVL
B2: porcine antibody B1 (class I) (Fab, V domains shown)
VH: EVKLVESGGGLVQPGGSLKLSCVGSGSTFSSDAVSWVRQAPGKGLEWLAGIDGDGGGGSTYYADSVKGRFTISRDNSQKTAYLQMNSLRTDDTARYYCAECPMVLLAKCSMEFWGPGVEVVVS
VL: DIVLTQTPRSLSVSPGEPASISCRSSQSLEEYGKNWLSWYQQKPGQSPRLLIYQATNRASWVPERFSGSGSGTDFTLKISRVEAEDVGVYYCFQDLQPPNGFGAGTKLELK
B3: porcine antibody F11 (class II) (Fab, V domains shown)
VH: EEKLVESGGGLVKPGGSLKLSCVGSGSTFSSDAVSWVRQAPGKGLEWLAGIDGDGYGVSTYYADSVKGRFTISRDNSQKTAYLQMNSLRTDDTARYYCAECPMVLLAKCSMEFWGPGVEVVVSS
VL: QTVIQEPAMSVSLGGTVTLTCAFSSGSVTSSNYPGWFQQTPGQPPRLLIYQTNSRPTGVPSRFSGAISGNRAALTITGAQAEDEADYFCGLWKSGTDLPFGGGTHLTVL
B4: porcine antibody H3 (class III) (Fab, V domains shown)
VH: QEKLVESGGGLVQPGGSLILSCVGSGFTFITYEINWVRQAPGKGLEWLAVVSKIGDRTYYAHSVRGRLTISRDNSQNTAYLQMNSLRTEDTARYYCVRAWCATTCLPGDIMDLWGPGVGVIV
VL: TVIHEPAMSLSPGGTDTLTCAFSSGSITNNNYPSWFQQTPRQPPRLLIYNTNNRPTGVPSRFSGAISGNKAALTITGAQANDEADYFCTLYISIADVIFGGGTHLTVL
B5: porcine antibody G6 (class IV) (Fab, V domains shown)
VH: EVKLVESGGGLVQPGGSLTLSCVGSGYTFSSYPICWVRQAPGKGLEWLSCIDSSGSKMHLADSVLSRFTISKDNSQNTAYLQMNSLRTEDTARYYCARGRWCYGVICDMDLWGPGVEVVVSS
VL: IVLTQTPLSLSVSPGEPASISCRSSQSLEEYGKNWLSWYQQKPGQSPRLLIYQATNRASWVPERFSGSGSGTDFTLKISRVEAEDAGVYYCQQYKEFPWTFGQGTKLELK
B6: porcine antibody F5 (class II) (antibody, V domains shown)
VH: EEKLVESGGGLVKPGGSLKLSCVGSGSTFSSDAVSWVRQAPGKGLEWLAGIDGDGYGVSTYYADSVKGRFTISRDNSQKTAYLQMNSLRTDDTARYYCAECPMVLLAKCSMEFWGPGVEVVVSS
VL: QTVIQEPAMSVSPGGTVTLTCAFSSGSVTTRNYPSWFQQTPGQPPRLLIGRTNNRPTGVPSRFSGVISGNKAALVITGAQANDEATYFCSLYSPDTIIFGSGTHLTVL

How the values were obtained:
[1] = target: T1, African swine fever virus major capsid protein p72 (p72 capsomer, trimer) (African swine fever virus, UniProt P22776); test: SPR
[2] = target: T1, African swine fever virus major capsid …; test: SPR; remark: listed apart in the source

Binder | Kd [1] [µM] | koff [2] [s⁻¹]
B1 | 1.49 | 0.00893
B2 | 0.00312 | 7.08e-05
B3 | 0.00913 | 0.000267
B4 | 0.998 | 0.00494
B5 | 1.92 | 0.00952
B6 | 3.16 | 0.0134
